Source: article PMC11435769, “Entrapment of Cyanase from Thermomyces lanuginosus Using Biomimetic Silica and Its Application for Cyanate Bioremediation” (Polymers, 2024)

Test system: N#CO
Test: purified protein
Format: biochemical, Thermomyces lanuginosus
Settings: free enzyme, standard assay: co-substrate bicarbonate (0.2 mL of 15 mM NaHCO3 in 1 mL), 50 mM Tris-HCl pH 8, 60 °C

## TlCyn (Thermomyces lanuginosus)
  Km: 440 µM
  kcat: 18400 s⁻¹
  kcat/Km: 4.19e+07 M⁻¹ s⁻¹
